Reference: PMC4927390

Molecular target: PpsR2-mVenus-CAAX (membrane-bound) (Rhodopseudomonas palustris)
Assay: translocation assay

decrease of mCherry fluorescence in cytoplasm after 3 min of 740 nm illumination: 25%
Substance: BphP1-mCherry, transiently expressed in HeLa cells (natural protein)
